This is an account of results in the supplement of paper PMC10598134.

± gives the standard deviation.

This data set in a line: collision cross section of modified peptide (TIMS, N2, iRT-aligned); higher = larger / more extended gas-phase ion. The method, boiled down: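 Synthetic peptide pools (~100 fmol/µL in 2% acetonitrile/0.1% formic acid, iRT standard spiked 1:40) were separated on a 120-min nanoflow C18 gradient at 60 °C. They were analysed on a timsTOF Pro/HT (dda-PASEF, nitrogen, ~2.4 mbar) and identified with MaxQuant. 1/K0 was calibrated with three reference ions and aligned run-wise to the median iRT peptide deviation. Collision cross section came from the Mason-Schamp equation, averaging 1–3 technical replicates of the most abundant feature per charge state.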

The mark [1] stands for this setting: charge state: 3, modification: Biotin.
Setting [2] is: charge state: 2, modification: Butyryl.
[3] abbreviates: charge state: 2, modification: HexNAc (ST).
[4] abbreviates: charge state: 3, modification: HexNAc (ST).
Where [5] appears, read: charge state: 2, modification: hydroxyisobutyryl.
The mark [6] stands for this setting: charge state: 2, modification: Propionyl.
Where [7] appears, read: charge state: 2, modification: Hydroxyproline.
Where [8] appears, read: charge state: 3, modification: Trimethyl (K).
Setting [9] is: charge state: 3, modification: Hydroxyproline.
The mark [10] stands for this setting: charge state: 2, modification: Succinyl.
The mark [11] stands for this setting: charge state: 2, modification: Acetyl (K).
The mark [12] stands for this setting: charge state: 2, modification: Methyl (K).
Setting [13] is: charge state: 3, modification: Methyl (K).
The mark [14] stands for this setting: charge state: 2, modification: Nitro (Y).
The mark [15] stands for this setting: charge state: 3, modification: Nitro (Y).
Where [16] appears, read: charge state: 3, modification: Acetyl (K).
Setting [17] is: charge state: 2, modification: Methyl (R).
[18] abbreviates: charge state: 3, modification: Methyl (R).
The mark [19] stands for this setting: charge state: 2, modification: Formyl.
[20] abbreviates: charge state: 2, modification: Malonyl.
The mark [21] stands for this setting: charge state: 3, modification: Dimethyl (K).
[22] abbreviates: charge state: 2, modification: Citrullination (R).
Setting [23] is: charge state: 3, modification: Citrullination (R).
Setting [24] is: charge state: 2, modification: Dimethyl (K).
Setting [25] is: charge state: 2, modification: GlyGly (K).
The mark [26] stands for this setting: charge state: 3, modification: GlyGly (K).
The mark [27] stands for this setting: charge state: 2, modification: Glutarylation.
The mark [28] stands for this setting: charge state: 3, modification: Glutarylation.
Setting [29] is: charge state: 3, modification: Succinyl.

On to SLEEEGAAHSGKR [_SLEEEGAAHSGK(Biotin)R_], for which the collision cross section is on record as 428.85 Å² (charge state: 2, modification: Biotin) and 493.19 Å² under setting [1].

Under setting [2], LLEEEDSKLK [_LLEEEDSK(Butyryl)LK_] registered a collision cross section of 385.99 ± 0.85 Å².

Take “QQETAAAETETR [_QQETAAAETET(HexNAc (ST))R_]”: the collision cross section reads like this: under setting [3], 397.03 ± 0.67 Å²; under setting [4], 483.44 ± 0.18 Å².

For “ASNAAVKLAESK [_ASNAAVK(hydroxyisobutyryl)LAESK_]”, under setting [5], the collision cross section turned out to be 376.83 ± 0.8 Å².

Substance “DKALPLEAEVAPVK [_DK(Propionyl)ALPLEAEVAPVK_]” showed a collision cross section under setting [6] of 410.19 Å².

Consider “GGPGAPGAPGPK [_GGPGAP(Hydroxyproline)GAPGPK_]”, for which the collision cross section under setting [7] is given as 326.77 ± 0.24 Å².

As to “PSVSTKLISK [_PSVSTK(Trimethyl (K))LISK_]”, the collision cross section runs as follows: (charge state: 2, modification: Trimethyl (K)) 364.51 ± 0.61 Å²; under setting [8], 427.1 ± 2.4 Å².

Under setting [9], “PGSPGPPGSPGPR [_PGSP(Hydroxyproline)GPPGSPGPR_]” displayed a collision cross section of 422.04 ± 4.8 Å².

In the case of ASEALLKQLK [_ASEALLK(Succinyl)QLK_], the collision cross section under setting [10] is 374.59 ± 0.24 Å².

Take “DLGKFQVATDALK [_DLGK(Propionyl)FQVATDALK_]”: the collision cross section under setting [6] is given as 407.94 Å².

Consider ASEALLKQLK [_ASEALLK(Acetyl (K))QLK_], for which the collision cross section under setting [11] is given as 373.11 ± 0.4 Å².

For the substance LAEEENKAK [_LAEEENK(Methyl (K))AK_], the collision cross section is reported as 347.67 ± 0.66 Å² under setting [12] and 422.11 Å² under setting [13].

With YVHADAPTNK [_Y(Nitro (Y))VHADAPTNK_], the collision cross section is, setting by setting: under setting [14], 352.73 ± 0.72 Å²; under setting [15], 417.54 ± 1.2 Å².

TLQKQSVVYGGK [_TLQK(Butyryl)QSVVYGGK_]: the collision cross section under setting [2] amounted to 396.52 ± 0.85 Å².

The substance “VNVEAPDVNLEGLGGKLK [_VNVEAPDVNLEGLGGK(Acetyl (K))LK_]” gave a collision cross section under setting [11] of 460.53 ± 2.8 Å² and a collision cross section under setting [16] of 542.09 Å².

With “GARLPGPVSSAR [_GAR(Methyl (R))LPGPVSSAR_]”, the collision cross section was found to be 360.12 ± 1.2 Å² under setting [17] and 474.74 ± 8.7 Å² under setting [18].

Substance SLKLNTAEDAK [_SLK(Succinyl)LNTAEDAK_] registered a collision cross section under setting [10] of 377.2 ± 0.87 Å².

For the substance GPPGAKGNK [_GPP(Hydroxyproline)GAKGNK_], the collision cross section under setting [7] is on record as 311.98 ± 0.24 Å².

The substance “GRGTGEAEEEYVGPR [_GR(Methyl (R))GTGEAEEEYVGPR_]” showed a collision cross section under setting [18] of 491.55 ± 1.6 Å².

VGTASVLQPVKK [_VGTASVLQPVK(Formyl)K_]: under setting [19], the collision cross section is given as 375.49 ± 0.89 Å².

Substance IQQELQTAKK [_IQQELQTAK(Malonyl)K_] had a collision cross section under setting [20] of 373.35 ± 6 Å².

For “VEELEGEITTLNHK [_VEELEGEIT(HexNAc (ST))TLNHK_]”, the collision cross section is, setting by setting: under setting [3], 442.1 ± 10 Å²; under setting [4], 511.94 ± 0.96 Å².

Take “IDLPAENSNSETIIITGKR [_IDLPAENSNSETIIITGK(Dimethyl (K))R_]”: the collision cross section under setting [21] stood at 568.21 ± 0.55 Å².

The substance “GGGGGGGGGAPRGR [_GGGGGGGGGAPR(Citrullination (R))GR_]” came in with a collision cross section under setting [22] of 333.41 ± 0.64 Å² and a collision cross section under setting [23] of 420.82 ± 2.9 Å².

Regarding “GRGTSQLAEGATAK [_GR(Citrullination (R))GTSQLAEGATAK_]”, under setting [22], the collision cross section is recorded as 396.62 ± 1 Å².

For the substance “SLKLNTAEDAK [_SLK(Dimethyl (K))LNTAEDAK_]”, the collision cross section runs as follows: under setting [24], 369.7 ± 0.36 Å²; under setting [21], 468.91 ± 1.6 Å².

As for “DDSFLGKLGGTLAR [_DDSFLGK(GlyGly (K))LGGTLAR_]”, the collision cross section reads like this: under setting [25], 434.49 ± 0.96 Å²; under setting [26], 484.35 ± 1.9 Å².

Regarding “DDSFLGKLGGTLAR [_DDSFLGK(Gluratylation)LGGTLAR_]”, the collision cross section under setting [27] is 415.27 ± 0.59 Å² and the collision cross section under setting [28] was determined as 485.15 Å².

With “AAQASDLEKIHLDEK [_AAQASDLEK(GlyGly (K))IHLDEK_]”, the collision cross section reads like this: under setting [25], 469.33 ± 0.94 Å²; under setting [26], 508.49 ± 1.9 Å².

“GEVGAGAGPGAQAGPSAKR [_GEVGAGAGPGAQAGPSAK(hydroxyisobutyryl)R_]”: the collision cross section by setting is: under setting [5], 426.95 ± 0.56 Å²; (charge state: 3, modification: hydroxyisobutyryl) 486.12 ± 1.9 Å².

On to “LFVGGIKEDTEEHHLR [_LFVGGIK(Acetyl (K))EDTEEHHLR_]”, for which the collision cross section runs as follows: under setting [11], 494.34 Å²; under setting [16], 543.04 ± 0.75 Å².

“LFVGGIKEDTEEHHLR [_LFVGGIK(Crotonyl)EDTEEHHLR_]” gave a collision cross section (charge state: 3, modification: Crotonyl) of 544.97 ± 1.3 Å².

For the substance “DLSTVEALQNLKNLK [_DLSTVEALQNLK(GlyGly (K))NLK_]”, the collision cross section runs as follows: under setting [25], 473.91 ± 4.8 Å²; under setting [26], 514.39 ± 5.7 Å².

With “ITLSKHQNVQLPR [_ITLSK(Succinyl)HQNVQLPR_]”, the collision cross section was 418.56 ± 0.53 Å² under setting [10] and 485.89 ± 2 Å² under setting [29].

“TQDQISNIKYHEEFEK [_TQDQISNIK(GlyGly (K))YHEEFEK_]”: under setting [26], the collision cross section was 559.05 ± 0.57 Å².

As for “VLATQPGPGRGR [_VLATQPGPGR(Methyl (R))GR_]”, the collision cross section under setting [17] is given as 376.85 ± 0.74 Å² and the collision cross section under setting [18] turned out to be 455.74 ± 9.5 Å².

Substance “LEKDYQPGITFIVVQK [_LEKDYQP(Hydroxyproline)GITFIVVQK_]” gave a collision cross section under setting [7] of 457.03 ± 0.32 Å² and a collision cross section under setting [9] of 487.95 ± 1.3 Å².

For GHYTIGK [_GHY(Phospho (Y))TIGK_], the collision cross section (charge state: 2, modification: Phospho (Y)) came to 330.16 ± 0.068 Å².

“KDYQPGITFIVVQK [_KDYQP(Hydroxyproline)GITFIVVQK_]” registered a collision cross section under setting [9] of 502.4 Å².

On to “GETASKLQSEISR [_GETASK(Malonyl)LQSEISR_]”, for which the collision cross section under setting [20] turned out to be 395.19 ± 0.023 Å².

With “VDVEVPDVSLEGPEGKLK [_VDVEVPDVSLEGPEGK(Acetyl (K))LK_]”, the collision cross section runs as follows: under setting [11], 461.92 ± 2.1 Å²; under setting [16], 555.98 Å².

Take “VLDSGAPIKIPVGPETLGR [_VLDSGAPIK(GlyGly (K))IPVGPETLGR_]”: the collision cross section reads like this: under setting [25], 467.11 ± 1.6 Å²; under setting [26], 510.19 ± 1.1 Å².

“TQDQISNIKYHEEFEK [_TQDQISNIK(Succinyl)YHEEFEK_]” displayed a collision cross section under setting [29] of 549.89 ± 1.1 Å².

Turning to “GEPGLPGHPGK [_GEPGLP(Hydroxyproline)GHPGK_]”, the collision cross section under setting [7] came to 337.36 ± 0.3 Å².

DHLSDKESK [_DHLSDK(Formyl)ESK_] showed a collision cross section under setting [19] of 345.83 ± 0.37 Å².

For the substance “GTITVSAQELKDNR [_GTITVSAQELK(Gluratylation)DNR_]”, the collision cross section under setting [27] turned out to be 422.99 ± 0.48 Å² and the collision cross section under setting [28] amounted to 483.37 ± 1.7 Å².

Take “SLFFGGKGAPLQR [_SLFFGGK(Malonyl)GAPLQR_]”: under setting [20], the collision cross section was 399.96 ± 0.61 Å².

In turn, “PGGEGPQCEKTTDVK [_PGGEGPQCEK(Formyl)TTDVK_]” registered a collision cross section under setting [19] of 413.32 Å².

For “STGLELETPSLVPVKK [_STGLELETPSLVPVK(Butyryl)K_]”, the collision cross section runs as follows: under setting [2], 438.73 ± 0.53 Å²; (charge state: 3, modification: Butyryl) 522.48 ± 2.1 Å².

In the case of “DLGKFQVATDALK [_DLGK(Crotonyl)FQVATDALK_]”, under “charge state: 2, modification: Crotonyl”, the collision cross section stood at 409.72 ± 0.55 Å².

On to LAEEENKAK [_LAEEENK(GlyGly (K))AK_], for which the collision cross section by setting is: under setting [25], 356.17 ± 0.39 Å²; under setting [26], 428.57 ± 0.75 Å².

For the substance “ISSNFSSIIAEKLR [_ISSNFSSIIAEK(Trimethyl (K))LR_]”, the collision cross section under setting [8] was found to be 499.26 ± 8.7 Å².

For the substance “FSHSVQNSERGK [_FSHSVQNSER(Citrullination (R))GK_]”, the collision cross section is 390.38 ± 0.44 Å² under setting [22] and 441.33 ± 1.8 Å² under setting [23].

Substance “HELQANCYEEVKDR [_HELQANCYEEVK(Biotin)DR_]” registered a collision cross section under setting [1] of 512.53 ± 1.6 Å².

As for “SPASDTYIVFGEAK [_SPASDTY(Nitro (Y))IVFGEAK_]”, the collision cross section is, setting by setting: under setting [14], 402.5 ± 0.55 Å²; under setting [15], 486.92 Å².

Turning to LTSLNVKYNNDK [_LTSLNVK(Butyryl)YNNDK_], under setting [2], the collision cross section was 414.27 ± 0.78 Å².

TPNLYIYSKK [_TPNLYIYSK(Dimethyl (K))K_] returned a collision cross section under setting [24] of 376.02 ± 0.46 Å² and a collision cross section under setting [21] of 432.06 ± 2.8 Å².

Regarding SDDESSQKDIK [_SDDESSQK(Methyl (K))DIK_], the collision cross section amounted to 375.97 ± 0.26 Å² under setting [12] and 439.66 ± 3.3 Å² under setting [13].

Substance “YEQEHAAIQDKLFQVAK [_YEQEHAAIQDK(Methyl (K))LFQVAK_]” yielded a collision cross section under setting [13] of 557.9 ± 0.6 Å².
